10 molecules from patent US20200055939A1 (Genentech, published 2020) can be followed below.

The target of experiment [1] is MICA*004 on HCC1534 cells (human, UniProt Q29983 24-383). Put plainly: cell-based or functional assay.
Experiment [2] addresses T1, MICA*008 on MEL-JUSO cells (human, UniProt Q29983 24-317).
T1 chain: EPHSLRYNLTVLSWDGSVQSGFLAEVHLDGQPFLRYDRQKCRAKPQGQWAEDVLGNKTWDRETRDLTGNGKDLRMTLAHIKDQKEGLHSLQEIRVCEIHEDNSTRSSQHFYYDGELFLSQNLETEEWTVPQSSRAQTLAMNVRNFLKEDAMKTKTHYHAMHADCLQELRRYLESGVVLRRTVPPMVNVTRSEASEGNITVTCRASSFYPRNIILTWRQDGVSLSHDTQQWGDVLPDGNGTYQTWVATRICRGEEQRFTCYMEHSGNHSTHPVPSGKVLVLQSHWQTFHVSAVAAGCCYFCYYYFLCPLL
Put plainly: cell-based or functional assay.

The target in experiment [3] is MICB*005 on HCC1534 cells (human). Put plainly: cell-based or functional assay.
The target of the next experiment is T2, huMICA*008 alpha 3-his (human).
T2 construct: whole construct entry: GS, alpha 3 domain (Thr204-Ser297), GNS, His8; also the construct of the FPOP experiment; also called MICA008.His; MICA*008 alpha3 construct
T2 chain: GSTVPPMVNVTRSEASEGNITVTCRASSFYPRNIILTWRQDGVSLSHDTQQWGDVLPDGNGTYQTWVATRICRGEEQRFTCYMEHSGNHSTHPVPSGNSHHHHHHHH
Put plainly: SPR, Biacore 8K, antibody on Protein A chip. On the technique in general: Surface plasmon resonance follows binding to a sensor surface in real time, without labels.

The target of a further experiment is T3, huMICB*005 alpha 3-his (human).
T3 construct: whole construct entry: GS, alpha 3 domain, GNS, His8; also called MICB005.His; MICB*005 alpha3 construct
T3 chain: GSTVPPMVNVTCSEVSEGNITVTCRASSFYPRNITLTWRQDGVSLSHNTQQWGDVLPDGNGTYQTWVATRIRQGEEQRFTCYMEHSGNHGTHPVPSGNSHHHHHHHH
Put plainly: SPR, Biacore 8K, antibody on Protein A chip.

A further experiment addresses T4, huMICA*002 alpha 3-his (human).
T4 construct: whole construct entry: GS, alpha 3 domain, GNS, His8; also called MICA002.His; MICA*002 alpha3 construct
T4 chain: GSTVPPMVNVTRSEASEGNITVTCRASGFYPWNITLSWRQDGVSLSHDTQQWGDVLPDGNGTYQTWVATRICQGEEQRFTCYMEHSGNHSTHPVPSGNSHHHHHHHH
Put plainly: SPR, Biacore 8K, antibody on Protein A chip.

The next experiment has as its target T5, huMICA*004 alpha 3-his (human).
T5 construct: whole construct entry: GS, alpha 3 domain, GNS, His8; also called MICA004.His; MICA*004 alpha3 construct
T5 chain: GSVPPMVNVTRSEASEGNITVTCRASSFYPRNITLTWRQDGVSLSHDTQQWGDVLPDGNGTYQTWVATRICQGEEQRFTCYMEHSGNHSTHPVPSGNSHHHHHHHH
Put plainly: SPR, Biacore 8K, antibody on Protein A chip.
Wherever % Inhibition is given: test concentration or dose not given here.

B1: 13A9v2 (antibody, IgG1, V domains shown)
VH: EVQLVQSGAEVKKPGASVKVSCKASGYAFTNYLIEWVRQAPGQGLEWIGAINPGSGATNYNEKFKDRATLTADKSTNTAYLELSSLRSEDTAVYFCARFLGNYFDNWGQGTLVTVSS
VL: DIQMTQSPSSLSASVGDRVTITCRASGNIHSYLAWYQQKPGKAPKLLIYYAETLADGVPSRFSGSGSGTDFTLTISSLQPEDFATYYCQQFWTTPYTFGQGTKVEIK
notes: humanized variant of 13A9
B1: the “% Inhibition” value in experiment [1] came out at 10%; in experiment [2] it was 12%; in experiment [3] it was 60%. For the same molecule, the Kd worked out at 2.56 nM in the experiment with huMICA*008 alpha 3-his, 3.15 nM with huMICB*005 alpha 3-his, 4.44 nM with huMICA*002 alpha 3-his and 5.32 nM with huMICA*004 alpha 3-his.

B2: 13A9v3 (antibody, IgG1, V domains shown)
VH: EVQLVQSGAEVKKPGASVKVSCKASGYAFTNYLIEWVRQAPGQGLEWIGAINPGSGATNYNEKFKDRVTITADTSTSTAYLELSSLRSEDTAVYYCARFLGNYFDNWGQGTLVTVSS
VL: DIQMTQSPSSLSASVGDRVTITCRASGNIHSYLAWYQQKPGKSPKLLVYYAETLADGVPSRFSGSGSGTDYTLTISSLQPEDFATYFCQQFWTTPYTFGQGTKVEIK
notes: humanized variant of 13A9
Consider B2, for which the “% Inhibition” value in experiment [1] is 25%; in experiment [2], 2%; in experiment [3] it was 42%. Moreover, the equilibrium dissociation constant (Kd) in the experiment with huMICA*008 alpha 3-his turned out to be 3.85 nM; with huMICB*005 alpha 3-his, 3.15 nM; in the experiment with huMICA*002 alpha 3-his it was 4.97 nM; with huMICA*004 alpha 3-his, 4.79 nM.

B3: 13A9v4 (antibody, IgG1, V domains shown)
VH: EVQLVQSGAEVKKPGASVKVSCKASGYAFTNYLIEWVRQAPGQGLEWIGAINPGSGATNYNEKFKDRATLTADKSTNTAYLELSSLRSEDTAVYFCARFLGNYFDNWGQGTLVTVSS
VL: DIQMTQSPSSLSASVGDRVTITCRASGNIHSYLAWYQQKPGKSPKLLVYYAETLADGVPSRFSGSGSGTDYTLTISSLQPEDFATYFCQQFWTTPYTFGQGTKVEIK
notes: humanized variant of 13A9
For the molecule B3, the “% Inhibition” value was -29% in experiment [1], -31% in experiment [2] and 63% in experiment [3]. The dissociation constant Kd stood at 2.72 nM in the experiment with huMICA*008 alpha 3-his, 2.4 nM with huMICB*005 alpha 3-his, 3.93 nM with huMICA*002 alpha 3-his and 3.69 nM with huMICA*004 alpha 3-his.

B4: 13A9v1 (antibody, IgG1, V domains shown)
VH: EVQLVQSGAEVKKPGASVKVSCKASGYAFTNYLIEWVRQAPGQGLEWIGAINPGSGATNYNEKFKDRVTITADTSTSTAYLELSSLRSEDTAVYYCARFLGNYFDNWGQGTLVTVSS
VL: DIQMTQSPSSLSASVGDRVTITCRASGNIHSYLAWYQQKPGKAPKLLIYYAETLADGVPSRFSGSGSGTDFTLTISSLQPEDFATYYCQQFWTTPYTFGQGTKVEIK
notes: humanized variant of 13A9
Take B4: the “% Inhibition” value in experiment [1] was determined as 12%; in experiment [2], 10%; in experiment [3] it was 43%. Further, the dissociation constant (Kd) was determined as 5.6 nM with huMICA*008 alpha 3-his, 5.12 nM in the experiment with huMICB*005 alpha 3-his, 5.87 nM in the experiment with huMICA*002 alpha 3-his and 8.37 nM with huMICA*004 alpha 3-his.

B5: 1D5v24 (antibody, IgG1, V domains shown)
VH: EVQLVQSGAEVKKPGASVKVSCKASGYAFTSQNIYWVRQAPGQGLEWIGYIEPYNVVPMYNPKFKGRVTITVDKSTSTAYLELSSLRSEDTAVYYCARSGSSNFDYWGQGTLVTVSS
VL: DIQLTQSPSSLSASVGDRVTITCSASSSISSHYLHWYQQKPGKSPKLLIYRTSNLASGVPSRFSGSGSGTDYTLTISSLQPEDFATYYCQQGSSLPLTFGQGTKVEIK
notes: humanized variant of 1D5
Take B5: the figures for the “% Inhibition” value in experiment [1], in experiment [2] and in experiment [3] were 50%, 65% and 43%, respectively. Also, the Kd with huMICA*008 alpha 3-his came out at 1.41 nM; with huMICB*005 alpha 3-his, 1.62 nM; in the experiment with huMICA*002 alpha 3-his, 1.21 nM; with huMICA*004 alpha 3-his, 0.9 nM.

B6: 1D5v25 (antibody, IgG1, V domains shown)
VH: EVQLVQSGAEVKKPGASVKVSCKASGYAFTSQNIYWVRQAPGQGLEWIGYIEPYNVVPMYNPKFKGRVTITVDTSTSTAYLELSSLRSEDTAVYYCARSGSSNFDYWGQGTLVTVSS
VL: DIQLTQSPSSLSASVGDRVTITCSASSSISSHYLHWYQQKPGKSPKLLIYRTSNLASGVPSRFSGSGSGTDYTLTISSLQPEDFATYYCQQGSSLPLTFGQGTKVEIK
notes: humanized variant of 1D5
With B6, the results for the “% Inhibition” value in experiment [1], in experiment [2] and in experiment [3] were 46%, 62% and 28%, respectively. In addition, the dissociation constant Kd with huMICA*008 alpha 3-his worked out at 0.93 nM; in the experiment with huMICB*005 alpha 3-his, 1.84 nM; with huMICA*002 alpha 3-his, 1.22 nM; with huMICA*004 alpha 3-his it was 0.96 nM.

B7: 1D5v26 (antibody, IgG1, V domains shown)
VH: EVQLVQSGAEVKKPGASVKVSCKASGYAFTSQNIYWVRQAPGQGLEWIGYIEPYNVVPMYNPKFKGRVTITRDKSTSTAYLELSSLRSEDTAVYYCARSGSSNFDYWGQGTLVTVSS
VL: DIQLTQSPSSLSASVGDRVTITCSASSSISSHYLHWYQQKPGKSPKLLIYRTSNLASGVPSRFSGSGSGTDYTLTISSLQPEDFATYYCQQGSSLPLTFGQGTKVEIK
notes: humanized variant of 1D5
With B7, the “% Inhibition” value in experiment [1] was determined as 37%; in experiment [2] it was 50%; in experiment [3] it was 42%. Further, the Kd with huMICA*008 alpha 3-his turned out to be 3.12 nM; with huMICB*005 alpha 3-his, 7.15 nM; in the experiment with huMICA*002 alpha 3-his, 3.9 nM; with huMICA*004 alpha 3-his, 3.17 nM.

B8: 1D5v28 (antibody, IgG1, V domains shown)
VH: EIQLVQSGAEVKKPGASVKVSCKASGYAFTSQNIYWVRQAPGQGLEWIGYIEPYNVVPLYNPKFKGRATLTVDKSTSTAYLELSSLRSEDTAVYYCARSGSSNFDYWGQGTLVTVSS
VL: DIQLTQSPSSLSASVGDRVTITCSASSSISSHYLHWYQQKPGKSPKLLIYRTSNLASGVPSRFSGSGSGTDYTLTISSLQPEDFATYYCQQGSSLPLTFGQGTKVEIK
notes: humanized variant of 1D5
Take B8: the “% Inhibition” value was determined as 3% in experiment [1], 0% in experiment [2] and 36% in experiment [3]. The Kd in the experiment with huMICA*008 alpha 3-his is 0.84 nM; with huMICB*005 alpha 3-his, 1.49 nM; with huMICA*002 alpha 3-his, 1.19 nM; with huMICA*004 alpha 3-his it was 0.87 nM.

B9: 1D5v27 (antibody, IgG1, V domains shown)
VH: EIQLVQSGAEVKKPGASVKVSCKASGYAFTSQNIYWVRQAPGQGLEWIGYIEPYNVVPAYNPKFKGRATLTVDKSTSTAYLELSSLRSEDTAVYYCARSGSSNFDYWGQGTLVTVSS
VL: DIQLTQSPSSLSASVGDRVTITCSASSSISSHYLHWYQQKPGKSPKLLIYRTSNLASGVPSRFSGSGSGTDYTLTISSLQPEDFATYYCQQGSSLPLTFGQGTKVEIK
notes: humanized variant of 1D5
Turning to B9, the results for the “% Inhibition” value in experiment [1], in experiment [2] and in experiment [3] were 53%, 69% and -8%, respectively. The dissociation constant (Kd) in the experiment with huMICA*008 alpha 3-his worked out at 1.44 nM; with huMICB*005 alpha 3-his, 3.31 nM; with huMICA*002 alpha 3-his it was 1.85 nM; with huMICA*004 alpha 3-his it was 1.52 nM.

B10: 1D5v29 (antibody, IgG1, V domains shown)
VH: EIQLVQSGAEVKKPGASVKVSCKASGYAFTSQNIYWVRQAPGQGLEWIGYIEPYNVVPVYNPKFKGRATLTVDKSTSTAYLELSSLRSEDTAVYYCARSGSSNFDYWGQGTLVTVSS
VL: DIQLTQSPSSLSASVGDRVTITCSASSSISSHYLHWYQQKPGKSPKLLIYRTSNLASGVPSRFSGSGSGTDYTLTISSLQPEDFATYYCQQGSSLPLTFGQGTKVEIK
notes: humanized variant of 1D5
Consider B10, for which the entries for the “% Inhibition” value in experiment [1], in experiment [2] and in experiment [3] were 40%, 57% and -8%, respectively. In addition, the dissociation constant Kd in the experiment with huMICA*008 alpha 3-his turned out to be 1.65 nM; with huMICB*005 alpha 3-his, 3.86 nM; in the experiment with huMICA*002 alpha 3-his, 2.01 nM; with huMICA*004 alpha 3-his it was 1.58 nM.

What is called % Inhibition is the relative decrease from the control value, in per cent. As usually defined, the Kd is the constant that tells how readily two partners part at equilibrium. Read a low Kd as a tighter complex.
